Test results taken from the DeepSol protein solubility set.

test: soluble on expression in E. coli; label from the status in PepcDB or PDB records

Sequence | soluble on expression in E. coli
MRPGWIAADWGTSRLRVWAMGAEGVLAEARSDEGMGQIAVGGFEAALLRLIGLWLSDGPAVQVVICGMAGARQGWQEVPYRRLPCAPVDPQALVPVPSEDPRIAVRIVPGLAQAKPADVMRGEETQIAGALALLGSFDGVICLPGTHSKWAQVSAGEVVSFRSFLTGELFALLSERSVLRHGLAAEGWDDEAFLAAVSDGMSHPQKLGAKLFGLRAEALLQDLPPATARARLSGLLIGLELVGARSYWLGQPVVLVGEEALAARYGAALAAQGVQARLLPAAACTLGGLAAAVGQLTLASSGAGRKA | not soluble
MMVMTDKFNYEELGLKVGLEIHRQLDTKKLFSPVPSELSDKVEFTFQRRLRPTMSELGEIDPAALEEFKKGRVYVYEGNYELTDLVYMDEEPPRGPDREALEVALQIAYLLNAKPVDEVYYMRKIVIDGSNVSGFQRTAIIATDGKVETPWGAVGIPTICLEEDAARIIERKDKEVIYRLDRLGIPLIEISTTPDIHHPEQAKVVAKFIGDALRATKKVKRGLGTIRQDLNVSIKGGARIEIKGVQELDMIPIIIEREVERQLNLLKIRDELRKRGVKPKDIKEEFYDVTDIFENTKSKIIARVIKKGGKVLAIKLPKFRGLIGREIQPGRRLGTEFADRAKKYVPGIFHIDELPNYGISQEEVNKVIERLNLSEEDAFVLVAAEEEKAKNALREVIKRAREAIEGVPEETRRALPDGNTEYMRPLPGKARMYPETDIPPLRIPDDLKKKIKENLPELPQAKVERYVKEYKLDRSLAQTLVDDERDELFEELVSMGVKPSLAASILVVVLKGLRKEVPIENVTDEHIREAFQLYLEGKIAKEAFEEIFKELARNPSKSAREVAEEKGLTLLSEEEVTRIIEEVIQQNIEVVKAKGMGAMGLIMGRVMAKVRGKADGKLVSQIVRRKLQEISGG | soluble
MGVDPSVKVEYKAPTVTYDQVGFMSKSTLMTHEQLISVRSAKVRQSVKITVKEQIPKSHDDKIKVSIVSPEIKSSSSSKNSSPPDARLNKDHNLEWCVILAPGQHRLLPVRYTIEHPASESLSYKFN | not soluble
MSLSTIREVAKLANVSIATVSRVLNNDTKYKMTEETKNRVLDAVTQLNYIPITTPRKKMTVTNSNICKDAKIGCILRVTKKGYNDPYYMSILAGVETQLREVGIELSFIKSAPILQDKSHLASTFSDSLDGLILMEPLNEDIYHYIKKRVPHVVGIDTLRDDIDDVGYDHLENGILATQHLIEKGHKEIGFIGGSGESQDIKDSKRYQGYVIAMHKAGLPIQKKWIIDCGWNEDECVAKVDALCKSNHYPTAFFAASDLMAMAAMKSFYTNGISVPKRVAVIGMSDIEMSQYSNPPLTTYHVPKEEIGRVATNLLLARIQGYETLPQKIILPTTFVERSSTEGHHHHHH | soluble
MGSDKIHHHHHHMKETVYFGTYTRRTSQGIYKADFDTETGQLSNLELFAAEPSPTYLAFDQHQHLYTVGSQDDKGGIAAYQTDGTVLNHVVEEGAPHCYVAVDEKRDLVYAANYHKGQVLVYKRQEDGSLLLSDMDQHSGQGPHENQASPHVHYTDLTPDHYLVTCDLGTDQVITYDLDQEGKLSKLYTYHSKPGAGSRHIIFHNHYKIAYLICELNSTIEVLIYDGVGEFERMQVISTLPEAYEGFNGTAAIHLSKDGKYLYASNRGHDSIAVYTILADGSLELLEIVPTHGQTPRDFDLTPDQKFLIVVHQDSDNATVFKRNCDNGRLAELSNDFHVPEAVCIRFAP | not soluble
MGSDKIHHHHHHMLHIVNNLRDSFTPGTPHQAALAQIFPQDSEKQTMDKRDLSAIFRERLKLLLTRSDLNQSAFASAVGIDRSALSQLMSGASTRLPRAETLLNIAAEFKVSLDWLLGLSQDEGVTGEIRESLEIEEAPDGFDRTLLAKWFAEAAGTKIRYVPAGIPDLLRTRALVDYEANITNRSRLAQASETQYRIEYNRRPETDMEVCMPRHTLEIFARGLGVWDRFPEADRRQQLAHMATLLDDLYPTFRLFLYDGRMRYSIPLTIFGPYRAAIYVGDMYVVLNATQPVQALTQHFDNLIRAADVNPHEAAAFARNLAGMSFPSGSV | not soluble
MGSDKIHHHHHHMNELVSIITPCYNSAATIRETIRSVIAQSYVNWELLIIDDCSNDDSVKIIMEFMDTDSRIYYLKTEHPSGGPTLPRNVGIQAAKGRFIAFLDSDDIWLPNKLSTQLPLFINDNVAIVYSDYEKISEEGNRTGRIVKSDPYHHYKSLLCGNELGCLTVVYDTQKIGKRYFKFIGHEDYNLWLDILKEGFIAINTNICLALYRIRKGSVSSNKLRVIKWIWHIYRVEQKKTIWLSLYYSLSDLNKSLFKYLK | not soluble
MADPNGFLNYPRNDNPYRELAERIKDFAELQVPLSTEERQKQAARCMHCDVPFCHQGIFYGGKRAVSGCPNDNHIPEWNDLIYRGLQRKAYERLILTNPFPEFTGRVCPAPCEKSCAEALNGAGVTIKDNERFLGDLGNDEGWVAEIGKAAEPTGYKIAIIGSGPAGLSAAWRLNQLGHSVTVFEKSDRLGGLLMYGIPNMKLDKKVVQKRIDLMTELGVTFVTNTEIGKTISYEDLSVNFDRIILAIGAGIPRDLNISGREAVGIRFAIDFLTETTKTVLEEGEDNISQSLKGKKVVVIGGGDTGNDCIGTAVRLGAASVSQLEITPSLPTDRLDNNPWPEWPMTLRAGYGQKEAEFVGNTDLITYQMTATAFQTNAEGQLTGLKVAKVGPDFKALEGTEQVIEADLVLLAMGFVGTDTGLLDKFGIQEIYDDYRTNNDKVLVAGDARRGPSLVIWAIREGRKTAEIVDEQLIKVATALEHHHHHH | soluble
MQQNIQYTYSSDPRSGGNQNQQLHGISQFQQNSYQPTTYSNSNANNFHSSNSATFIPNSVTQTPQRRMGEEKSLVNMLDAYFIDSTTPSTSTSWNNQQPVQMSSIQQSVGSYNQQIPQLKVGDVDLQVEGMNVKLSSSPDKGEKDRVKKARQAEAARMRYHRLSNEEKRELNLKRTLAQKRKRQREKEMEELESILRETNDIQEDPDITEQLREKRMRAKWAEAARTRYARMTPEERRAHNTRRRMRQMQNAMSAIKACGMATGDPQKDDEAVRLHIKTQNAKKAEAARQRYHRMNDDEKRVYNQRRTEAFRRRRMEEEMLLAMPIGRINGEALDRAQQIVVRNAKRAEAARLRYQRMTPDQRKSYNQKRYTPKRRRNEMDDMISAGQMAVGSSGTITMGTGTPAKKDDMDALSSLERDVVKRTQHAQQILLRQRANQSSGTPRSVTPPPQAYIISNGQQQHQQLVGNQGNNGIGQHQVLHQGHMQQQQIQVSHQDFQQSSQSIPQNIYTSGMIIQNQGQQQQGQQQQQGQSQQILNNPYRT | not soluble
MSLKKKIAVVTGATGGMGIEIVKDLSRDHIVYALGRNPEHLAALAEIEGVEPIESDIVKEVLEEGGVDKLKNLDHVDTLVHAAAVARDTTIEAGSVAEWHAHLDLNVIVPAELSRQLLPALRAASGCVIYINSGAGNGPHPGNTIYAASKHALRGLADAFRKEEANNGIRVSTVSPGPTNTPMLQGLMDSQGTNFRPEIYIEPKEIANAIRFVIDAGETTQITNVDVRPRIELADRKEGHHHHHH | soluble
MGSDKIHHHHHHMKKETKHFRALLADNALYYIYSNISAPLSLQELAKEAGVSAHHFHRIFKEEQGQNLYETIKSIRLQKAANLLLSNHYSTISEVAQLCGYSSSASFIKAFKGRFHLTPREWRHGGHRQYAKEILSTSSAAMASQRSFLGLEPTIKKIPAFRAVYLRHKGYNKSIALSWQKLMAWGFEHQISSQARQIGIHHDNPSITPLAECRYIAALEVEEGFRAQGLLGVMEFPPTLCAVFEVQGRYGDVLGLIDYVYHEWLPQSGYEAKTIPAFALYQKNHFLDPLGNFQLDFCLPVGVV | not soluble
MAPKDNTWYTGAKLGFSQYHDTGFINNNGPTHENQLGAGAFGGYQVNPYVGFEMGYDFLGRMPYKGSVENGAYKAQGVQLTAKLGYPITDDLDIYTRLGGMVFRADTKSNVYGKNHDTGVSPVFAGGVEYAITPEIATRLEYQFTNNIGDAHTIGTRPDNGMLSLGVSYRFGQGEAA | soluble
MAHHHHHHMKRWRTANLFTPAEVQHAFAALHRNAEALYSVSGTSSPLGPFVCRRGGARRHRRDHIELPLRHMYEAKTVYEQLPVEVRLICAGLYEAALGYAQEALREPGVSSAARDGILSNLGRNSVLRVLRYPAGSGCRPHVDPGLCTALLVGSAGGLEMSTTDAVLTPFASGPGHNTAHFVSSPTSMRGEAATMPGTLPHWEPVLTAHTGEAVVMAGNMLGAVSGGALPGVLHRVRRDWVAETPRTDGQRSPPLHAACVGGGADAEVDAGSGVFRFNVIVELRPAHAKRWYAATSGQSQLSSASSPSSLA | not soluble
MSLNTYLNEISKFVDENREEIVSLWKEIVNMESYTHCKESVNKLAERLKLEFEKEGLDCELVDVGDNGSTLIGTLGSNIDKKPIIFSGHMDTVFETGTFGENPFKIIEGKAYGPGVLDMKGGIIISLYVIKALNKIGYKERPIKIVFSGDEEIGHKDSTGADVILREAKGGLCAFNMETGLVDNSLCVGRKGRIGCNIHVKGVETHAGNDFEGGRNAIEEMANKILRIQKLTNLDVGTTVSVSVIKGGRVENSIPEDCSIKVDLRFEKVEEMENVKEQVREICKETYIEGTSTEVNFISEMMPFETTEDVMRFHTFVNEVSKENGFGELNAKRLGGSSDASYLTIANVPTICSFGVRGEWNHTSREYAVVDSMFERVKLISTVILNLDKFEEGHHHHHH | soluble
MDYGMYFFEHVTPYETLVRRMERVIASGKTPFQDYFLFESKGFGKVLILDKDVQSTERDEYIYHETLVHPAMLTHPEPKRVLIVGGGEGATLREVLKHPTVEKAVMVDIDGELVEVAKRHMPEWHQGAFDDPRAVLVIDDARAYLERTEERYDVVIIDLTDPVGEDNPARLLYTVEFYRLVKAHLNPGGVMGMQAGMILLTHHRVHPVVHRTVREAFRYVRSYKNHIPGFFLNFGFLLASDAFDPAAFSEGVIEARIRERNLALRHLTAPYLEAMFVLPKDLLEALEKETMVSTDQNPFYVTPEGEARQAPYKG | soluble
MSLEPCWKVGFAETSGCLPKLCIAQLRLPAFCNSEGLFGLFDGETGNGVPNLLVKAIPKILLEERTVKETANDYMKYTLLSAHRELKQRGQQEAVNVTLCHIARSRLPTEAMSYLPQTVASGRKFILRVATVGESSAVLIKHNRCVLLNKGSPARKLGLSANFPVTVPDPEVQEVVLTDADEYLVLGNRKLWEVITMETVAEEIRKEENILLAAKRVQDIAQSYGAEENLSVMIVRFNEGHHHHHH | soluble
MPKAKAKTKNTEIISPHHYVYPNTTTLKNKYGIKNLNAFLEKCSHDTAKAMINLREESLPEYFDTAYLCHIHQQLFKNTFEWAGYLRHIPFTFADGTTAAMPEMKRTGWKNAFAIGDEIQEGLQRLDQTLAEKNNLQGLTREEFNSEAIELFNSLNQLHPFREGNGRTQRLFFENLAKAAGHQLNFSLITKERMMVASVAVAENGDLEPMQHLFEDISNPEKIRLLKEFMHTMKNTGRNVNDRPVMVAKEGETYTGTYRGAGLEGFALNVKGAYIIGNIDHLPPEQLKILKPGDKITFTAPK | soluble
MGSDKIHHHHHHMEHLPEQYRQLFPTLQTHTMLASCSQSALAEPVSRAIQDYYDSLLYKGTNWKEAIEKTEFARNEFAKLIGAEPDEVAIVPSVSDALVSVASSLTAFGKKHVVYTDMDFPAVPHVWQAHSDYTVSVIPSIDGVLPLEQYETHISDETVLTCVPHVHYRDGYVQDIKAIAEISQRKGSLLFVDAYQSAGHIPIDVKEWGVDMLAAGTRKYLLGIPGVAFLYVRKELADALKPKASAWFGRESGFDGAYAKVARRFQTGTPAFISVYAAAAALSLLNHIGVSHIRDHVKTICADAVQYAAEKGLQLAAAQGGIQPGMVAIRDERASETAGLLKKKKVICAPRENVIRLAPHFYNTKEEMRHAIDEIAAKTIHK | not soluble
